B1: BBSome complex member BBS1 (Homo sapiens), Q8NFJ9 (parent)
chain: MAAASSSDSDACGAESNEANSKWLDAHYDPMANIHTFSACLALADLHGDGEYKLVVGDLGPGGQQPRLKVLKGPLVMTESPLPALPAAAATFLMEQHEPRTPALALASGPCVYVYKNLRPYFKFSLPQLPPNPLEQDLWNQAKEDRIDPLTLKEMLESIRETAEEPLSIQSLRFLQLELSEMEAFVNQHKSNSIKRQTVITTMTTLKKNLADEDAVSCLVLGTENKELLVLDPEAFTILAKMSLPSVPVFLEVSGQFDVEFRLAAACRNGNIYILRRDSKHPKYCIELSAQPVGLIRVHKVLVVGSTQDSLHGFTHKGKKLWTVQMPAAILTMNLLEQHSRGLQAVMAGLANGEVRIYRDKALLNVIHTPDAVTSLCFGRYGREDNTLIMTTRGGGLIIKILKRTAVFVEGGSEVGPPPAQAMKLNVPRKTRLYVDQTLREREAGTAMHRAFQTDLYLLRLRAARAYLQALESSLSPLSTTAREPLKLHAVVQGLGPTFKLTLHLQNTSTTRPVLGLLVCFLYNEALYSLPRAFFKVPLLVPGLNYPLETFVESLSNKGISDIIKVLVLREGQSAPLLSAHVNMPGSEGLAAA

Variants of: B1
Settings: with Lepr

| Variant | effect of a mutation on the interaction |
| --- | --- |
| M390R | decreasing interaction |
